Assay results reported in the nanobody polyreactivity screen of Harvey et al. (2022).

Assay: yeast display, Sf9 membrane polyspecificity reagent, FACS + sequencing; frameworks hold sequencing errors
How it was run: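 Nanobodies came from a synthetic yeast display library in Saccharomyces cerevisiae BJ5465, induced with galactose for 36–48 hours and stained for 1 hour at 4 °C with 10% biotinylated, detergent-solubilized Sf9 membrane reagent. Cells were enriched on streptavidin microbeads and then FACS-sorted, with low and high (top ~1%) gates set on anti-HA fluorescence for expression and streptavidin fluorescence for reagent binding. Each polyreactivity label reflects the gate a clone came from. Genes were amplified by colony PCR, sequenced by MiSeq 2 × 250 and filtered by CDR length.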

Sequence | polyreactivity (PSR sort gate)
QVQLVESGGGLVQAGGSLRLSCAASGSTFYAYAMGWYRQAPGKERELVAAIDSGGSTYYADSVKGRFTISRDNAKNTVYLQMNSLKPEDTAVYYCAVRHRYTRAYWGRVYWGQGTQVTVSS | low polyreactivity
QVQLVESGGGLVQAGGSLRLSCAASGSTFYAYDMGWYRQAPGKEREWVAAISRSGGNTYYADSVKGRFTISRDYAKNTVYLQMNSQKPEDTAVYYCNARSSVYGHRKGSARIPRYDYWGQGTQVTVSS | high polyreactivity
QVQLVESGGGLVQAGGSLRLSCAASGSTFYDYAMGWYRQAPGKERELVASIDSGDSTNYADSVKGRFTISRDNAKNTVYLQMNSLKPEDTAVYYCAADYQNTGARYWYYYWGQGTQVTVSS | low polyreactivity
QVQLVESGGGLVQAGGSLRLSCAASGSTFYFNAMGGYRQSPGKERELVAVIDGSGGFTYYADSVKGRFTISRDNAKNTVYLQMNSLKQEVTAVYDCNADLVYNTFLYSGGDEYDYWGQGTQVTVSS | high polyreactivity
QVQLVESGGGLVQAGGSLRLSCAASGSTFYFNAMGWSRQAPGKERELVAGISSGGSTYYADSVKGRFTISRDNAKNTVYLQMNSLKPEDTAVYYCAATWLVERPVSYTEYGYWGQGTQVTVSS | low polyreactivity
QVQLVESGGGLVQAGGSLRLSCAASGSTFYFNAMGWYRQAPGKERELVAGIRYSGSSTYYADSVKGRFTISRDNAKNTVYLQMNSLKPEDTAVYYCAARYSVYPRVSKYSYRFNYWGQGNQVTVSS | high polyreactivity
QVQLVESGGGLVQAGGSLRLSCAASGSTFYFNAMGWYRQAPGKERELVAGIYSGGSTYYADSVKGRFTISRDNAKNTVYLQMNSLKTEDTAVYYCAATWLVERPFSYTEYGYWGQGTQVTVSS | low polyreactivity
QVQLVESGGGLVQAGGSLRLSCAASGSTFYFNAMGWYRQAPGKERELVAVIDGSGGFTYDADSVKGRFTISRDNAKNTVYLQMNSLKPEDTAVYYCNADLVYNTFIYSGGDEYDYWGQGTQGTVSS | high polyreactivity
QVQLVESGGGLVQAGGSLRLSCAASGSTFYFNSMGWYRQAPGKERELVAAITSGARTKYADSVKGRFTMSRDNAKITVYLQMNSLKPEDTAVYYCSASGLYYYRYRYYYWGQGTQVTVSS | high polyreactivity
QVQLVESGGGLVQAGGSLRLSCAASGSTFYFYAMGGYRQAPGKERELVAVISSGGRTYYADSVKGRFTISRDNAKNTVYLQMNSLKPEDTAVYYCAASWPSSLTYYYWGQGTQVTVSS | low polyreactivity
QVQLVESGGGLVQAGGSLRLSCAASGSTFYFYAMGWYRQAPGKEREFVAAITASGGSTYYADSVKGRFTISRDNAKNTVYLQMNSLKPEDTAVYYCAARFSYWKTKRAYDWGQGTQVTVSS | high polyreactivity
QVQLVESGGGLVQAGGSLRLSCAASGSTFYFYAMGWYRQAPGKERELVATITTRGGSTYYADSVKGRFTISRDHAKNTLDLQMNILKPEDTAVYYCAREAWYKSYSRIKFGYWGQGTQVTVSS | high polyreactivity
QVQLVESGGGLVQAGGSLRLSCAASGSTFYFYVMGWYRQAPGKERELVARISWSGGSTYYADSVKGRFTISRDNAKNTVYLQMNSLKPEDTAVYYCARQYKYPSSGEYDSWGQGTQVTVSS | low polyreactivity
QVQLVESGGGLVQAGGSLRLSCAASGSTFYGKAMGWYRQAPGKRELLAAITWSGGSTYYADSVKGRFTISRDNAKNTVYLQMNSLKPEDTAVYYCAARNPKSGYNYWGQGTQVTVSS | low polyreactivity
QVQLVESGGGLVQAGGSLRLSCAASGSTFYGYAMGWSRQAPGKERELDAVINYRGDRTYYADSVKGRFTISRDNAKNTVYLQMNSLKPEDTAVYYCAARYRVYYLPGYEYWGQGTQVTVSS | high polyreactivity
QVQLVESGGGLVQAGGSLRLSCAASGSTFYGYAMGWSRQAPGKERELVAAISSSGSRTYYADSVKGRFTISRDNANNPVYLQMNSLKPEDTAVYYCAAVSTLLYYHYYTRDYWGQGTEVTVSS | high polyreactivity
QVQLVESGGGLVQAGGSLRLSCAASGSTFYGYAMGWYRQAPGKERELVAAITRSGGSTYYADSVKGRFTISRDNAKNTVYLQMNSLKPEDSEVYYCNKYGYKGGVGYDYWGQGTEVTVSS | high polyreactivity
QVQLVESGGGLVQAGGSLRLSCAASGSTFYGYAMGWYRQAPGKERELVAAITRSGGSTYYADSVKGRFTISRDNAKNTVYLQMNSLKPEDTAVYYCAAEFRYSRVYGYNYWGQGSQVTVSS | high polyreactivity
QVQLVESGGGLVQAGGSLRLSCAASGSTFYGYAMGWYRQAPGKERELVAVISWRGTSTYYADSVKGRFTISRDNAKNTVYLQMNSLKPEDTAVYYCAARGLWPYDYWGQGTQVTVSS | low polyreactivity
QVQLVESGGGLVQAGGSLRLSCAASGSTFYGYGMGWYRQAPGKERELVAAITGSGDTTYYADSVKGRFTISRDNAKNTVYLQMNSLKPEDTAVYYCAADLTVRYDYWGQGTQVTVSS | low polyreactivity
QVQLVESGGGLVQAGGSLRLSCAASGSTFYGYGMGWYRQAPGKEWELVAAITGSGDTTYYADSVKGRFTISRDNAKNTVYLQMNSLKPEDTAVYYCNARWHAEYDYWGQGTQVTVSS | low polyreactivity
QVQLVESGGGLVQAGGSLRLSCAASGSTFYGYGMGWYSQAPGKERELVAAITKSVGSTYYADSVNGRFTISRDNAKNTVYLQMNSLKPEDTAVYYCARSTRYRRGPSQYAGTYDYWGQGTQVTVSS | low polyreactivity

Sequence | polyreactivity (PSR sort gate)
QVQLVESGGGLVQAGGSLRLSCAASGSTFYGYTMGWSRQAPGKERELVAVITSGGSTYYADSVKGRFTISRDNAKNTVYLQMNSLKPDDTAVYYCAQRYGYPAYGRPWRIGRTYDYWGQGTQVTVSS | low polyreactivity
QVQLVESGGGLVQAGGSLRLSCAASGSTFYHYAMGWYRQAPGKERELVAAISTGGSTYYADSVKGRFTISRDNAKNTVYLQMNSLKPEDTAVEYCNARYIGGYGYWGQGTQVTVSS | low polyreactivity
QVQLVESGGGLVQAGGSLRLSCAASGSTFYHYAMGWYRQAPGKERELVAAISTSGGRTYYADSVKGRFTISRDNAKNTVYLQMNSLKPEDTAVYYCAARSYRYYYGFDYWGQGTQVTVSS | low polyreactivity
QVQLVESGGGLVQAGGSLRLSCAASGSTFYIYDMGWYRQAPGKEREFVAAIDFSGSSTYADSVKGRFTISRDNAKNTVYFQINSLKPDDSAVFDCAAYQIYQYDGPYVYWGQGTQVTVSS | low polyreactivity
QVQLVESGGGLVQAGGSLRLSCAASGSTFYKNAMGWYRPAPGKERELVAAISGSGGRTYYADSVKGRFTISRDNAKNTVYLQMNSLKPEDTAVYYCNAARAYYSLYYGLDYWGQGTQVTVSS | high polyreactivity
QVQLVESGGGLVQAGGSLRLSCAASGSTFYKNAMGWYRQAPGKEREFVAAIRSGDSTNYADSVKGRFTISRDNAKNTVYIQMNSLKPEDSAVYYCARDRPGDYAGYDYWGQGSQVTVSS | low polyreactivity
QVQLVESGGGLVQAGGSLRLSCAASGSTFYKNAMGWYRQAPGKERELVAAITRSGGSTYYADSVKGRFTISRDNAKNTVYLQMNSLKPEDTAVYYCAYYPYGYDYWGQGTQVTVSS | high polyreactivity
QVQLVESGGGLVQAGGSLRLSCAASGSTFYKYAMGGYRQAPGKERELVASITSGGRTYYADSEKGRFTISRDNAKNTVYLQMNSLKPDDTAVYYCAKRYGRLTRYDYWGQGTQVTVSS | high polyreactivity
QVQLVESGGGLVQAGGSLRLSCAASGSTFYKYAMGRYREAPRKERELVASISRSGGSTSYADSVTGRFTISRDNAKNTVYLQMNSLTPEDTAVYYCAATWRQHPGSMGYWGQGTQVTVSS | high polyreactivity
QVQLVESGGGLVQAGGSLRLSCAASGSTFYKYAMGWYRQAPGKERELVAVITDGGSTTYADSVKGRFTISRDNAKNTVYLQMNSLKPEDTAVYYCAADYYLRKTRFESWGQGTQVTVSS | low polyreactivity
QVQLVESGGGLVQAGGSLRLSCAASGSTFYKYAMGWYRQAPGKERELVAVITKSGGSTYYADSVKGRFTISRDNEKNTVYLQMNSLKPEDTAVYYCAAEDHYGYNSGYDYWGQGTQVTVSS | high polyreactivity
QVQLVESGGGLVQAGGSLRLSCAASGSTFYKYGMGRNTQAHGKERELVAAISGSGDSTYYADSVKGRFTISRDNAKNSVYLQMNSLKPEDTAVYYCNAGPWCYLHEYDYWGQGTQVTVSS | low polyreactivity
QVQLVESGGGLVQAGGSLRLSCAASGSTFYKYTMGWYRQAPGKERELVAAISGSGTTTYYADSVKGRFTISRDNAKNTVYLQMNSLKPEDTAVYYCAARRFSPGSSGHGYWGQGTQVTVSS | high polyreactivity
QVQLVESGGGLVQAGGSLRLSCAASGSTFYKYTMGWYRQAPGKERELVAAISGSGTTTYYADSVKGRFTISRDNAKNTVYLQMNSLNPEDTAVYYCAASLYLYNSRITVRSHYYYWGQGTQVTVSS | high polyreactivity
QVQLVESGGGLVQAGGSLRLSCAASGSTFYLYAKVWYRQAPGKERELVAAISWSGGDTYYADSVKGRFTISRDKAKNTVYLQMNSLKPEDTAVYYCAAEISYSSPGSPRRRDYWGQGTQVTVSS | low polyreactivity
QVQLVESGGGLVQAGGSLRLSCAASGSTFYLYAMGWYRQAPGKEREFVAAISWSGGRTYYADSVKGRFTISRDNAKNTVYLQMNSLKPEDTAVYYCAAKPLFGTRDDYWGQGTQVTVSS | low polyreactivity
QVQLVESGGGLVQAGGSLRLSCAASGSTFYLYAMGWYRQAPGKERELVAAISWTGGSTTYADSVKGRFTISRDNAKNTVYLQMNSLKPEDTAVYYCAADEGLIDGRAWYGYWGQGTQVTVSS | low polyreactivity
QVQLVESGGGLVQAGGSLRLSCAASGSTFYLYDMGWYRQAPGKERELVATITSGTSTTYADSVKGRFTISRDNAKNTVYLQMISLKPEDTAVYYCNVYKPPTRGGVLEYGYWGQGTQVTVSS | low polyreactivity
QVQLVESGGGLVQAGGSLRLSCAASGSTFYLYTMGWYRLAPGKERELVAAISVSGGSTFYADSVKGRFSISRDNAKNTVYLQKNSLKPEDTAVYYSAADGYLHAGHWRTYGYYYWGQGTQVTVSS | low polyreactivity
QVQLVESGGGLVQAGGSLRLSCAASGSTFYLYTMGWYRQAPGKERELVAAINRSGGRTYYADSVKGRFTISRDNAKNTVYLQMNSLKPEDTAVYYCATDSVTRGRSRGFDYWGQGTQVTVSS | high polyreactivity
QVQLVESGGGLVQAGGSLRLSCAASGSTFYNNAMGWYRQAPGKEREFVAAITLSGGRTYYADSVKGRFTISRDNAMNTVYLQMNSLKPEDTAVYYCAAKGTRRGKERNYWGQGTQVTVSS | high polyreactivity
